Measurements reported in PMC12723162, “Alphaherpesvirus pUL21 homologs use non-canonical sequences to compete with cellular adaptors for protein phosphatase 1 binding” (The Journal of Biological Chemistry, 2025).
Positions count from the first letter of the chain named.

B1: pORF38-GFP (protein)
chain: MEFPYHSTVSYNGVTFYFNERATRAYFICGGCLISIPRKHGGEIAKFGHVVRGVGPGDRSVASYVRSELNRTGKTWAVSSNNNCVFLDRVALLAAGSGAVDRDLCGTFDVEVEDPTLADYLVSLPVTHLTLVAGVDVTRENKLKLFPTPTAINTTNGFMYVPNEASFSLVYMRMLELPESLQELVSGLFDGTPEIRDALNGSNDDEKTSIIVSRRAADVVTEDVKADDVPISGEPYSEKQPRRRKKSDHITLSNFVQIRTIPRVMDIWDPRHKATTHCIRALSCAVFFADEVIFKARKWPGLEDELNEARETIYTAVVAVYGERGELPFFGHAYGRDLTSCQRFVIVQYILSRWEAFNCYAVIEDLTRSYVNALPSDDDTDQVAQDLIRTIVDTANSLLREVGFIGTLAETLLFLPLPQLPCYKETSHLAKKEGVRILRLAKTGVGLSDTVPVDVSVTERHEYEISRYLDTLYSGDPCYNGAVRLCRLLGSSIPIALYYNTISGNAFEPYFAGRRYIAYLGALFFGRVHQTPFGDGKKTQR
modifications: left off: GFP, end not stated, kept
B2: pUL21-FV242AA (protein)
chain: MELSYATTMHYRDVVFYVTTDRNRAYFVCGGCVYSVGRPCASQPGEIAKFGLVVRGTGPDDRVVANYVRSELRQRGLQDVRPIGEDEVFLDSVCLLNPNVSSELDVINTNDVEVLDECLAEYCTSLRTSPGVLISGLRVRAQDRIIELFEHPTIVNVSSHFVYTPSPYVFALAQAHLPRLPSSLEALVSGLFDGIPAPRQPLDAHNPRTDVVITGRRAPRPIAGSGAGSGGAGAKRATVSEAAQVKHIDRVGPAGVSPAPPPNNTDSSSLVPGAQDSAPPGPTLRELWWVFYAADRALEEPRADSGLTREEVRAVRGFREQAWKLFGSAGAPRAFIGAALGLSPLQKLAVYYYIIHRERRLSPFPALVRLVGRYTQRHGLYVPRPDDPVLADAINGLFRDALAAGTTAEQLLMFDLLPPKDVPVGSDVQADSTALLRFIESQRLAVPGGVISPEHVAYLGAFLSVLYAGRGRMSAATHTARLTGVTSLVLAVGDVDRLSAFDRGAAGAASRTRAAGYLDVLLTVRLARSQHGQSV
modifications: left off: GFP, end not stated, kept
B3: pORF38-FV255AA (protein)
chain: B1 chain with F255A, V256A
modifications: left off: GFP, end not stated, kept
B4: pUL21ΔL (protein)
chain: MELSYATTMHYRDVVFYVTTDRNRAYFVCGGCVYSVGRPCASQPGEIAKFGLVVRGTGPDDRVVANYVRSELRQRGLQDVRPIGEDEVFLDSVCLLNPNVSSELDVINTNDVEVLDECLAEYCTSLRTSPGVLISGLRVRAQDRIIELFEHPTIVNVSSHFVYTPSPYVFALAQAHLPRLPSSLEALVSGLFDGIPAPRQPLDAHNPRTDVVITGTVSEFVQVKHIDRVGPAGVSPAPPPNNTDSSSLVPGAQDSAPPGPTLRELWWVFYAADRALEEPRADSGLTREEVRAVRGFREQAWKLFGSAGAPRAFIGAALGLSPLQKLAVYYYIIHRERRLSPFPALVRLVGRYTQRHGLYVPRPDDPVLADAINGLFRDALAAGTTAEQLLMFDLLPPKDVPVGSDVQADSTALLRFIESQRLAVPGGVISPEHVAYLGAFLSVLYAGRGRMSAATHTARLTGVTSLVLAVGDVDRLSAFDRGAAGAASRTRAAGYLDVLLTVRLARSQHGQSV
modifications: left off: GFP (from the vector pEGFP-N1), end not stated, kept
B5: pUL21ΔLR (protein)
chain: MELSYATTMHYRDVVFYVTTDRNRAYFVCGGCVYSVGRPCASQPGEIAKFGLVVRGTGPDDRVVANYVRSELRQRGLQDVRPIGEDEVFLDSVCLLNPNVSSELDVINTNDVEVLDECLAEYCTSLRTSPGVLISGLRVRAQDRIIELFEHPTIVNVSSHFVYTPSPYVFALAQAHLPRLPSSLEALVSGLFDGIPAPRQPLDAHNPRTDVVITGTVSEFVQVKHIDRVGPAGVSAPPGPTLRELWWVFYAADRALEEPRADSGLTREEVRAVRGFREQAWKLFGSAGAPRAFIGAALGLSPLQKLAVYYYIIHRERRLSPFPALVRLVGRYTQRHGLYVPRPDDPVLADAINGLFRDALAAGTTAEQLLMFDLLPPKDVPVGSDVQADSTALLRFIESQRLAVPGGVISPEHVAYLGAFLSVLYAGRGRMSAATHTARLTGVTSLVLAVGDVDRLSAFDRGAAGAASRTRAAGYLDVLLTVRLARSQHGQSV
modifications: left off: GFP (from the vector pEGFP-N1), end not stated, kept
B6: pUL21ΔR (protein)
chain: MELSYATTMHYRDVVFYVTTDRNRAYFVCGGCVYSVGRPCASQPGEIAKFGLVVRGTGPDDRVVANYVRSELRQRGLQDVRPIGEDEVFLDSVCLLNPNVSSELDVINTNDVEVLDECLAEYCTSLRTSPGVLISGLRVRAQDRIIELFEHPTIVNVSSHFVYTPSPYVFALAQAHLPRLPSSLEALVSGLFDGIPAPRQPLDAHNPRTDVVITGRRAPRPIAGSGAGSGGAGAKRATVSEFVQVKHIDRVGPAGVSAPPGPTLRELWWVFYAADRALEEPRADSGLTREEVRAVRGFREQAWKLFGSAGAPRAFIGAALGLSPLQKLAVYYYIIHRERRLSPFPALVRLVGRYTQRHGLYVPRPDDPVLADAINGLFRDALAAGTTAEQLLMFDLLPPKDVPVGSDVQADSTALLRFIESQRLAVPGGVISPEHVAYLGAFLSVLYAGRGRMSAATHTARLTGVTSLVLAVGDVDRLSAFDRGAAGAASRTRAAGYLDVLLTVRLARSQHGQSV
modifications: left off: GFP (from the vector pEGFP-N1), end not stated, kept

Tested on: endogenous PP1α
Experiment: GFP affinity capture / co-IP of endogenous PP1α with GFP-tagged bait
Format: binding, human
Settings: HEK 293T cells, 24 h post-transfection, GFP-Trap, immunoblot, representative of two independent experiments
Excerpt: Bacterial expression plasmids encoding the mouse PP1γ catalytic domain (residues 7–300)-H6 and pUL21-H6, and mammalian expression vectors encoding pUL21(FV242AA)-GFP, pORF38-GFP and pORF38(FV255AA)-GFP, were described previously ([23]). We note that the mouse and human PP1γ catalytic domains share 100% amino acid identity. pORF38-NLT-H6 was generated by sub-cloning residues 1 to 263 of ORF38 into the vector pOPTnH ([52]). pUL21-RVxF-H6 was generated by inserting the mutations A237V and V239F into pUL21-H6 by QuikChange site-directed mutagenesis. Human PP1α was cloned from HeLa cell cDNA into a vector derived from pF5K (Promega) with an N-terminal Myc epitope tag via restriction-based cloning, and point mutations were introduced into Myc-PP1α by QuikChange mutagenesis. A plasmid encoding pUL21-GFP was generated by sub-cloning a codon-optimized synthetic UL21 gene (GeneArt) into pEGFP-N1 (Clontech), yielding an identical pUL21-GFP amino acid sequence as used in ([23]). pUL21-ΔL, -ΔR and -ΔLR were generated from this vector via inverse PCR, and point mutations were introduced via QuikChange mutagenesis.
Mycoplasma-free human embryonic kidney 293T (HEK 293T) cells (American Type Culture Collection #CRL-3216) were maintained in Dulbecco’s modified Eagle’s medium (DMEM) with high glucose (Merck), supplemented with 10% (v/v) heat-inactivated fetal calf serum and 2 mM L-glutamine (complete DMEM) in a humidified 5% CO2 atmosphere at 37 °C. The identity of the cell line was not independently confirmed.
Monolayers of HEK 293T cells were transfected with 7.7 μg of DNA per 9 cm dish, using 18 μg/ml 25 kDa branched polyethylenimine (Merck) or using TransIt-LT1 (Mirus) in accordance with the manufacturer’s instructions. Cells were harvested 24 h post-transfection and incubated for 30 min in ice-cold 10 mM Tris pH 7.5, 150 mM NaCl, 0.5 mM EDTA, 0.5% Igepal CA-630 (a.k.a. NP-40), 1% (v/v) EDTA-free protease inhibitor cocktail (Merck) before clarification at 21,000×g for 10 min at 4 °C. Lysate protein concentrations were measured using the bicinchoninic acid (BCA) assay (Pierce) and normalized before affinity capture using GFP-Trap resin (ChromoTek) following the manufacturer’s protocol. Samples were eluted by heating the resin to 95 °C for 5 min in 45 μl 2 × SDS-PAGE loading buffer. Proteins were separated by SDS-PAGE and transferred to 0.45 μm nitrocellulose membranes (PerkinElmer or Cytiva). Membranes were stained with Ponceau S and imaged using a G:Box XX9 (Syngene) before blocking in Tris-buffered saline with 0.1% TWEEN-20 (TBS-T) supplemented with 5% (w/v) non-fat milk powder. Immunoblotting was performed using antibodies diluted in blocking buffer as listed below, and immunoblots were imaged using an Odyssey CLx (LI-COR Biosciences). Densitometry was performed using Image Studio Lite version 5.2 (LI-COR Biosciences), and statistical tests were performed using Prism version 7 (GraphPad).
The following primary antibodies and dilutions were used for immunoblotting: rabbit anti-CERT 1:10,000 (Abcam #Ab72536), mouse anti-PP1α 1:1000 (Santa Cruz #sc-271762), mouse anti-Myc 1:4000 (Millipore #05–724), rat anti-tubulin (clone YL1/2) hybridoma supernatant 1:40 ([54]). The anti-CERT antibody was validated using a knock-out cell line. The anti-PP1α antibody has been validated by siRNA knockdown ([55]). The anti-Myc antibody was validated using control experiments lacking Myc-tagged transfected constructs ([56]). The anti-tubulin antibody has been validated by immunofluorescence microscopy, immuno-electron microscopy and radiolabeled immunosorbent assay ([54]). Secondary antibodies from LI-COR Biosciences were diluted 1:10,000 as follows: IRDye 680RD goat anti-rat (#926–68029) and goat anti-mouse (#926–68020), or IRDye 800CW goat anti-rabbit (#926–32221).

Row | Molecule | Co-IP of endogenous PP1α | Co-IP of endogenous PP1α (listed as pORF38) | Co-IP of endogenous PP1α (listed as FV242AA) | Co-IP of endogenous PP1α (listed as FV255AA)
1 | B1 | consistently co-immunoprecipitated more efficiently by pORF38-GFP than by pUL21-GFP | efficiently precipitate endogenous PP1α |  | 
2 | B2 | the interaction is disrupted by mutation of the TROPPO motif |  | PP1α coIP was abolished | 
3 | B3 | the interaction is disrupted by mutation of the TROPPO motif |  |  | abolished binding to PP1
4 | B4 | completely abolishes PP1α binding |  |  | 
5 | B5 | completely abolishes PP1α binding |  |  | 
6 | B6 | binding is retained |  |  | 
